These results are taken from patent publication EP2112166B1.

For test [1], the target named is CTLA-4-IgG1 fusion protein (made in-house) (human) (UniProt P16410). Description: BIAcore; CTLA-4-Ig on chip, 878.7 RU. (In general: In SPR one partner is held on a chip, and binding of the other changes the refractive index at the surface.)
The target is the same in test [2]. Description: BIAcore; CTLA-4-Ig on chip, 504.5 RU.
For test [3] the target is unchanged. Description: BIAcore; CTLA-4-Ig on chip, 457.2 RU.
Test [4] has as its target CTLA-4-Ig(G4) (Repligen) (UniProt P16410). Description: competition ELISA: CTLA-4-Ig(G4) binding to coated B7.1-Ig(G1).
Test [5] has the same target. Description: competition ELISA: CTLA-4-Ig(G4) binding to coated B7.2-Ig(G1).

B1: 4.10.2 antibody (antibody, from another filing, human IgG2, V domains shown)
VH: GVVQPGRSLRLSCVASGFIFSSHGIHWVRQAPGKGLEWVAVIWYDGRNKDYADSVKGRFTISRDNSKNTLYLQMNSLRAEDTAVYYCARVAPLGPLDYWGQGTLVTVSS
VL: SPGTLSLSPGERATLSCRASQSISSNFLAWYQQKPGQAPRLLIYRPSSRATGIPDSFSGSGSGTDFTLTISRLEPEDFALYYCQQYGTSPFTFGPGTKVDIKR
One may read the Kd as the constant that tells how readily two partners part at equilibrium. A lower Kd goes with tighter binding. As a reminder, the koff is the rate constant with which the complex falls apart. The term kon denotes the rate constant with which the complex forms. Low values mean slow association, high ones fast association. What is called IC50 is the concentration at which inhibition is half-maximal. A lower IC50 goes with greater potency. For the molecule B1, in test [1], the Ka worked out at 3.9e+09 M⁻¹, the Kd is 0.254 nM, the koff came out at 0.000253 s⁻¹ and the kon amounted to 1e+06 M⁻¹ s⁻¹. In test [2], this molecule yielded a Ka of 2.2e+09 M⁻¹, a Kd of 0.455 nM, a koff of 0.00043 s⁻¹ and a kon of 940000 M⁻¹ s⁻¹. Moreover, in test [3], the Ka stood at 1.4e+09 M⁻¹, the Kd was 0.721 nM, the koff worked out at 0.000505 s⁻¹ and the kon came out at 700000 M⁻¹ s⁻¹. Further, the IC50 in test [4] was 3.39 nM. For the same molecule, the IC50 in test [5] was 1.5 nM.
